From PMC3057111

Key:
[1] = target: T1, hnRNPLL RRM1 V136D (thunder) (Mus musculus, UniProt Q921F4 109-213, V136D); test: ITC
T1 sequence: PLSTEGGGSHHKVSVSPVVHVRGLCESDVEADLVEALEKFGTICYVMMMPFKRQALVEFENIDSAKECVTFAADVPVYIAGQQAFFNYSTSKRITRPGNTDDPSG

hnRNPLL RRM1 WT [2] = target: T2, hnRNPLL RRM1 WT (Mus musculus, UniProt Q921F4 109-213); test: ITC
T2 sequence: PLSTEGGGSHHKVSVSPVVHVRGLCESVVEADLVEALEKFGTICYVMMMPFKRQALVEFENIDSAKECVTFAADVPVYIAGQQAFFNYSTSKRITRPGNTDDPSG

[3] = target: T1, hnRNPLL RRM1 V136D (thunder); test: NMR titration
[4] = target: T1, hnRNPLL RRM1 V136D (thunder); test: NMR titration; remark: listed apart in the source
[5] = target: T1, hnRNPLL RRM1 V136D (thunder); test: NMR titration; remark: listed apart in the source
hnRNPLL RRM1 WT [6] = target: T2, hnRNPLL RRM1 WT; test: NMR titration
hnRNPLL RRM1 WT [7] = target: T2, hnRNPLL RRM1 WT; test: NMR titration; remark: listed apart in the source
hnRNPLL RRM1 WT [8] = target: T2, hnRNPLL RRM1 WT; test: NMR titration; remark: listed apart in the source

B1: Ptprc exon 6 ARS 15-mer WT (ssRNA)
RNA: CCUUACCUGCACGCA
Kd [1]: 3.1 ± 1.4 µM | Kd (hnRNPLL RRM1 WT [2]): 1.9 ± 0.4 µM | Kd [3]: 2 ± 0.7 µM | Kd [4]: 1 ± 0.4 µM | Kd [5]: 1.1 ± 0.4 µM | Kd (hnRNPLL RRM1 WT [6]): 1.5 ± 1.3 µM | Kd (hnRNPLL RRM1 WT [7]): 0.7 ± 0.7 µM | Kd (hnRNPLL RRM1 WT [8]): 0.1 µM
